In publication PMC5431157:

How the values were obtained:
[1] = target: human thrombin (human) (UniProt P00734); assay: enzyme inhibition kinetics (chromogenic substrate S-2238); 0.1 nM thrombin added to sculptin (0-80 pM) and S-2238 at different concentrations; 50 mM phosphate, 150 mM NaCl, 0.1% PEG 6000, pH 7.4, 37 °C; Hanes-Woolf plot, intercepts against inhibitor concentration, confirmed by non-linear regression for competitive inhibition
[2] = target: human thrombin (human) (UniProt P00734)
[3] = target: human thrombin (human) (UniProt P00734); remark: listed apart in the source
[4] = target: human thrombin (human) (UniProt P00734); assay: enzyme inhibition kinetics (chromogenic substrate S-2238); 0.1 nM thrombin, 15 µM S-2238, sculptin 0-500 pM; 50 mM phosphate, 150 mM NaCl, 0.1% PEG 6000, pH 7.4, 37 °C; fractional steady-state velocities fitted to Morrison's tight binding equation
[5] = target: human thrombin (human) (UniProt P00734); assay: enzyme inhibition kinetics (chromogenic substrate S-2238); 100 pM thrombin, 15 µM S-2238, sculptin 0-50 pM; 50 mM phosphate, 150 mM NaCl, 0.1% PEG 6000, pH 7.4, 37 °C; progress curves, kobs against sculptin concentration gives kon and koff; Ki = koff/kon

recombinant sculptin (natural protein)
Ki [1]: 0.0183 nM
residual activity of thrombin (100 pM, chromogenic substrate) with 1 nM sculptin, 6 h at 37 °C [2]: 97%
IC50 of inhibition of thrombin (0.1 nM) hydrolysis of 15 µM S-2238, dose-response fit [3]: 0.0866 nM
Ki [4]: 0.0195 nM
Ki [5]: 0.0161 nM
koff [5]: 0.00065 s⁻¹
kon [5]: 4.04e+07 M⁻¹ s⁻¹
